Laboratory results published in patent US20230257470A1 (published 2023).
Numbering of substitutions follows the chain as printed.

T1: human FcγRIIb (human, UniProt P31994 43-217, limits assumed)
T1 construct: also called FcgRIIb; FcγIIB
T1 sequence: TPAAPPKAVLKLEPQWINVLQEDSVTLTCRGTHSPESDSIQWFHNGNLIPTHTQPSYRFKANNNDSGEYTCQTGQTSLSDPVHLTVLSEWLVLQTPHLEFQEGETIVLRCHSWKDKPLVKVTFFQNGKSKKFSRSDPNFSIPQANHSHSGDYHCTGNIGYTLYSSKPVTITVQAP

T2: human FcγRIIa type H (human, UniProt P12318 36-217)
T2 construct: also called FcgRIIaH; FcγRIIa(H)
T2 sequence: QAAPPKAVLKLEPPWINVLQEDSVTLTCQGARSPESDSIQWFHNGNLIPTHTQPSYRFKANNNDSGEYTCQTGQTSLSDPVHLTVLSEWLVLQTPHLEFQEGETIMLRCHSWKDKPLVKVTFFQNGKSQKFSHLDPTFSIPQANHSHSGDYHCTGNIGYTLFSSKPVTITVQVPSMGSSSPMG

T3: human FcγRIIa type R (human, UniProt P12318 36-217)
T3 construct: also called FcgRIIaR; FcγRIIa(R)
T3 chain: T2 sequence with H133R

B1: IL6R-BP087/IL6R-L (antibody, human IgG1, name in EU numbering)
heavy: QVQLQESGPGLVKPSETLSLTCAVSGHSISHDHAWSWVRQPPGEGLEWIGFISYSGITNYNPSLQGRVTISRDNSKNTLYLQMNSLRAEDTAVYYCARSLARTTAMDYWGEGTLVTVSSASTKGPSVFPLAPSSKSTSGGTAALGCLVKDYFPEPVTVSWNSGALTSGVHTFPAVLQSSGLYSLSSVVTVPSSSLGTQTYICNVNHKPSNTKVDKKVEPKSCDKTHTCPPCPAPEYLGGDSVFLFPPKPKDTLMISRTPEVTCVVVDVSHEDPEVKFNWYVDGVEVHNAKTKPREEQYNSTYRVVSVLTVLHQDWLNGKEYKCKVSNKALPKPIEKTISKAKGQPREPQVYTLPPSRDELTKNQVSLTCLVKGFYPSDIAVEWESNGQPENNYKTTPPVLDSDGSFFLYSKLTVDKSRWQQGNVFSCSVMHEALHNHYTQESLSLSP
light: DIQMTQSPSSLSASVGDRVTITCRASQDISSYLNWYQQKPGKAPKLLIYYTSRLHSGVPSRFSGSGSGTDFTFTISSLQPEDIATYYCQQGNTLPYTFGQGTKVEIK
notes: copies: 2 + 2
B2: IL6R-BP133/IL6R-L (antibody, human IgG1, name in EU numbering)
heavy: B1 heavy with E235D
light: B1 light
notes: copies: 2 + 2
B3: IL6R-BP150/IL6R-L (antibody, human IgG1, name in EU numbering)
heavy: B1 heavy with G239D, K328A, K332R
light: B1 light
notes: the list runs over r34 and r35; copies: 2 + 2
B4: IL6R-BP177/IL6R-L (antibody, human IgG1, name in EU numbering)
heavy: B1 heavy with E235D, G239D, P273G, K328D
light: B1 light
notes: the list runs over r41 and r42; copies: 2 + 2
B5: IL6R-BP183/IL6R-L (antibody, human IgG1, name in EU numbering)
heavy: B1 heavy with E235D, P273G, K328A
light: B1 light
notes: the list runs over r52 and r53; copies: 2 + 2
B6: IL6R-BP089/IL6R-L (antibody, human IgG1, name in EU numbering)
heavy: B1 heavy with K328A
light: B1 light
notes: copies: 2 + 2
B7: IL6R-BP145/IL6R-L (antibody, human IgG1, name in EU numbering)
heavy: B1 heavy with G239D, K332A
light: B1 light
notes: copies: 2 + 2
B8: IL6R-BP088/IL6R-L (antibody, human IgG1, name in EU numbering)
heavy: B1 heavy with Y236L, G239D, K328A
light: B1 light
notes: copies: 2 + 2
B9: IL6R-BP147/IL6R-L (antibody, human IgG1, name in EU numbering)
heavy: B1 heavy with G239D, K328A
light: B1 light
notes: the list runs over r28 and r29; copies: 2 + 2
B10: IL6R-BP149/IL6R-L (antibody, human IgG1, name in EU numbering)
heavy: B1 heavy with E235D, G239D, Y298D, K328A
light: B1 light
notes: the list runs over r32 and r33; copies: 2 + 2
B11: IL6R-BP180/IL6R-L (antibody, human IgG1, name in EU numbering)
heavy: B1 heavy with Y236L, G239D, P273G
light: B1 light
notes: copies: 2 + 2
B12: IL6R-G1d/IL6R-L (antibody, human IgG1)
heavy: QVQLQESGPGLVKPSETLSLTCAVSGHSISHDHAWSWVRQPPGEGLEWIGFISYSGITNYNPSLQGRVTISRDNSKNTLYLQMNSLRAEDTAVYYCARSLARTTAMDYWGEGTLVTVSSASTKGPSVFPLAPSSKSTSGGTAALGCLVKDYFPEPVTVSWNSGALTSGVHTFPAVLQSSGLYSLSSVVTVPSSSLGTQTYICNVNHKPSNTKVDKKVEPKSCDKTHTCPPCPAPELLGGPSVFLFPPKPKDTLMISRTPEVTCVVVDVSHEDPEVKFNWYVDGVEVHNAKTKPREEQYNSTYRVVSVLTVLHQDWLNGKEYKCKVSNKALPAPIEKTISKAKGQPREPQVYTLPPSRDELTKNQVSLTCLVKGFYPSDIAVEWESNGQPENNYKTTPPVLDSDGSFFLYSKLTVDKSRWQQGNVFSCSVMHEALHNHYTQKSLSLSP
light: B1 light
notes: Anti-human IL-6 receptor human IgG1 with G1d constant region (C-terminal Gly and Lys removed); template used for producing IL6R-B3; also called IgG1; copies: 2 + 2
B13: IL6R-BP143/IL6R-L (antibody, human IgG1, name in EU numbering)
heavy: B1 heavy with K328A, K332A
light: B1 light
notes: copies: 2 + 2
B14: IL6R-BP144/IL6R-L (antibody, human IgG1, name in EU numbering)
heavy: B1 heavy with Y236L, G239D, K328A, K332A
light: B1 light
notes: copies: 2 + 2
B15: IL6R-BP129/IL6R-L (antibody, human IgG1, name in EU numbering)
heavy: B1 heavy with E235D, Y236L, Y298D
light: B1 light
notes: copies: 2 + 2
B16: IL6R-BP179/IL6R-L (antibody, human IgG1, name in EU numbering)
heavy: B1 heavy with Y236L, G239D, P273G, K328A
light: B1 light
notes: the list runs over r45 and r46; copies: 2 + 2

Target: T1, human FcγRIIb
Test: SPR (Biacore), FcγR over captured antibody; binding amount divided by that of IL6R-BF648/IL6R-L x 100
Experimental: (§1) According to the following method, relative binding activities were calculated for the results of analyzing interactions with the respective FcγRs.

relative binding activity	Binder
137 relative (IL6R-BF648/IL6R-L = 100)	B1
137 relative (IL6R-BF648/IL6R-L = 100)	B2
183 relative (IL6R-BF648/IL6R-L = 100)	B3
177 relative (IL6R-BF648/IL6R-L = 100)	B4
164 relative (IL6R-BF648/IL6R-L = 100)	B5
147 relative (IL6R-BF648/IL6R-L = 100)	B6
152 relative (IL6R-BF648/IL6R-L = 100)	B7
161 relative (IL6R-BF648/IL6R-L = 100)	B8
177 relative (IL6R-BF648/IL6R-L = 100)	B9
173 relative (IL6R-BF648/IL6R-L = 100)	B10
179 relative (IL6R-BF648/IL6R-L = 100)	B11
62 relative (IL6R-BF648/IL6R-L = 100)	B12
133 relative (IL6R-BF648/IL6R-L = 100)	B13
121 relative (IL6R-BF648/IL6R-L = 100)	B14
138 relative (IL6R-BF648/IL6R-L = 100)	B15
177 relative (IL6R-BF648/IL6R-L = 100)	B16

Target: T2, human FcγRIIa type H
Test: as above
Experimental: as §1

relative binding activity	Binder
179 relative (IL6R-BF648/IL6R-L = 100)	B1
151 relative (IL6R-BF648/IL6R-L = 100)	B2
770 relative (IL6R-BF648/IL6R-L = 100)	B3
409 relative (IL6R-BF648/IL6R-L = 100)	B4
191 relative (IL6R-BF648/IL6R-L = 100)	B5
186 relative (IL6R-BF648/IL6R-L = 100)	B6
224 relative (IL6R-BF648/IL6R-L = 100)	B7
166 relative (IL6R-BF648/IL6R-L = 100)	B8
582 relative (IL6R-BF648/IL6R-L = 100)	B9
401 relative (IL6R-BF648/IL6R-L = 100)	B10
203 relative (IL6R-BF648/IL6R-L = 100)	B11
1670 relative (IL6R-BF648/IL6R-L = 100)	B12
143 relative (IL6R-BF648/IL6R-L = 100)	B13
108 relative (IL6R-BF648/IL6R-L = 100)	B14
98 relative (IL6R-BF648/IL6R-L = 100)	B15
226 relative (IL6R-BF648/IL6R-L = 100)	B16

Target: T3, human FcγRIIa type R
Test: as above
Experimental: as §1

relative binding activity	Binder
163 relative (IL6R-BF648/IL6R-L = 100)	B1
174 relative (IL6R-BF648/IL6R-L = 100)	B2
757 relative (IL6R-BF648/IL6R-L = 100)	B3
691 relative (IL6R-BF648/IL6R-L = 100)	B4
423 relative (IL6R-BF648/IL6R-L = 100)	B5
222 relative (IL6R-BF648/IL6R-L = 100)	B6
350 relative (IL6R-BF648/IL6R-L = 100)	B7
377 relative (IL6R-BF648/IL6R-L = 100)	B8
650 relative (IL6R-BF648/IL6R-L = 100)	B9
539 relative (IL6R-BF648/IL6R-L = 100)	B10
602 relative (IL6R-BF648/IL6R-L = 100)	B11
650 relative (IL6R-BF648/IL6R-L = 100)	B12
238 relative (IL6R-BF648/IL6R-L = 100)	B13
204 relative (IL6R-BF648/IL6R-L = 100)	B14
111 relative (IL6R-BF648/IL6R-L = 100)	B15
570 relative (IL6R-BF648/IL6R-L = 100)	B16

Target: T4, human FcγRIIIa type V (human, UniProt P08637 17-208, limits assumed)
T4 construct: also called FcgRIIIaV; FcγRIIIa(V)
Test: as above
Experimental: as §1

T4 sequence (P08637 other isoform, or with tags, fused parts or gaps limits assumed): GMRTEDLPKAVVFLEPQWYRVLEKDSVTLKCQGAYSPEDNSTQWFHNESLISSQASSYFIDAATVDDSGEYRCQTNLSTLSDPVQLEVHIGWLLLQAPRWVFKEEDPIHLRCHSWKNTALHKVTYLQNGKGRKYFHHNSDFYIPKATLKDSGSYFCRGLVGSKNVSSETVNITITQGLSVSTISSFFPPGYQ

relative binding activity	Binder
158 relative (IL6R-BF648/IL6R-L = 100)	B1
114 relative (IL6R-BF648/IL6R-L = 100)	B2
204 relative (IL6R-BF648/IL6R-L = 100)	B3
186 relative (IL6R-BF648/IL6R-L = 100)	B4
113 relative (IL6R-BF648/IL6R-L = 100)	B5
136 relative (IL6R-BF648/IL6R-L = 100)	B6
153 relative (IL6R-BF648/IL6R-L = 100)	B7
122 relative (IL6R-BF648/IL6R-L = 100)	B8
209 relative (IL6R-BF648/IL6R-L = 100)	B9
186 relative (IL6R-BF648/IL6R-L = 100)	B10
100 relative (IL6R-BF648/IL6R-L = 100)	B11
3350 relative (IL6R-BF648/IL6R-L = 100)	B12
114 relative (IL6R-BF648/IL6R-L = 100)	B13
128 relative (IL6R-BF648/IL6R-L = 100)	B14
95 relative (IL6R-BF648/IL6R-L = 100)	B15
125 relative (IL6R-BF648/IL6R-L = 100)	B16

Target: T5, human FcγRIa (human, UniProt P12314 16-292, limits assumed)
T5 construct: also called FcgRIa; FcγRI (CD64)
Test: as above
Experimental: as §1

T5 sequence (P12314 16-292 limits assumed): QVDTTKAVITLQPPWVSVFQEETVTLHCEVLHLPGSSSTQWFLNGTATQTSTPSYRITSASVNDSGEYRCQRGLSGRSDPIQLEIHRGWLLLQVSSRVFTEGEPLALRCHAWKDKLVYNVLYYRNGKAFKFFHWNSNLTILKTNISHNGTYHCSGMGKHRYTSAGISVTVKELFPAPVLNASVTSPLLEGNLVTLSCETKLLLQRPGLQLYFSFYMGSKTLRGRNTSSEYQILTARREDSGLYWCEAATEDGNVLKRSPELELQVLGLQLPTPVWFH

relative binding activity	Binder
33 relative (IL6R-BF648/IL6R-L = 100)	B1
41 relative (IL6R-BF648/IL6R-L = 100)	B2
30 relative (IL6R-BF648/IL6R-L = 100)	B3
57 relative (IL6R-BF648/IL6R-L = 100)	B4
83 relative (IL6R-BF648/IL6R-L = 100)	B5
43 relative (IL6R-BF648/IL6R-L = 100)	B6
41 relative (IL6R-BF648/IL6R-L = 100)	B7
25 relative (IL6R-BF648/IL6R-L = 100)	B8
24 relative (IL6R-BF648/IL6R-L = 100)	B9
29 relative (IL6R-BF648/IL6R-L = 100)	B10
29 relative (IL6R-BF648/IL6R-L = 100)	B11
140 relative (IL6R-BF648/IL6R-L = 100)	B12
86 relative (IL6R-BF648/IL6R-L = 100)	B13
64 relative (IL6R-BF648/IL6R-L = 100)	B14
68 relative (IL6R-BF648/IL6R-L = 100)	B15
39 relative (IL6R-BF648/IL6R-L = 100)	B16
